Assay results: the supplement of paper PMC9112550, “Optimization of the antimicrobial peptide Bac7 by deep mutational scanning” (BMC Biology, 2022)

Tested on: Escherichia coli TOP10
Experiment: shrunken log2 fold change of peptide-encoding DNA abundance (4.5 h post-induction vs induction); higher = less antimicrobial activity (less host growth inhibition)
Details: time post-induction: 4.5 h; library: site-saturation at positions 5, 18, 19, 20
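Also: peptides expressed intracellularly from a pBAD plasmid library in pooled LB shake-flask culture, induced with 0.3% L-arabinose, DNA abundance read by NGS, three biological replicates, DESeq2 with apeglm shrinkage.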

| Sequence | shrunken log2 fold change |
| --- | --- |
| RRIRSRPPRLPRPRPRPSWGPRP | -0.114 |
| RRIRSRPPRLPRPRPRPSWIPRP | -0.363 |
| RRIRSRPPRLPRPRPRPSWPPRP | -0.135 |
| RRIRSRPPRLPRPRPRPSWVPRP | 0.0183 |
| RRIRSRPPRLPRPRPRPSWWPRP | 0.0841 |
| RRIRSRPPRLPRPRPRPSYHPRP | -0.836 |
| RRIRSRPPRLPRPRPRPTDEPRP | -0.148 |
| RRIRSRPPRLPRPRPRPTFFPRP | -0.0698 |
| RRIRSRPPRLPRPRPRPTFHPRP | -0.192 |
| RRIRSRPPRLPRPRPRPTHRPRP | 0.0995 |
| RRIRSRPPRLPRPRPRPTKDPRP | -0.105 |
| RRIRSRPPRLPRPRPRPTKRPRP | 0.294 |
| RRIRSRPPRLPRPRPRPTLCPRP | 0.0788 |
| RRIRSRPPRLPRPRPRPTLSPRP | 0.0887 |
| RRIRSRPPRLPRPRPRPTMIPRP | -0.163 |
| RRIRSRPPRLPRPRPRPTMQPRP | -0.106 |
| RRIRSRPPRLPRPRPRPTNKPRP | -0.328 |
| RRIRSRPPRLPRPRPRPTNRPRP | -0.362 |
| RRIRSRPPRLPRPRPRPTPEPRP | 0.866 |
| RRIRSRPPRLPRPRPRPTSFPRP | -0.189 |
| RRIRSRPPRLPRPRPRPTSPPRP | 0.742 |
| RRIRSRPPRLPRPRPRPTVEPRP | 0.119 |
| RRIRSRPPRLPRPRPRPTVKPRP | -0.188 |
| RRIRSRPPRLPRPRPRPTVPPRP | 0.0372 |
| RRIRSRPPRLPRPRPRPTWEPRP | 0.187 |

| Sequence | shrunken log2 fold change |
| --- | --- |
| RRIRSRPPRLPRPRPRPTWPPRP | 0.41 |
| RRIRSRPPRLPRPRPRPTYDPRP | -0.262 |
| RRIRSRPPRLPRPRPRPVCAPRP | 0.386 |
| RRIRSRPPRLPRPRPRPVFIPRP | -0.598 |
| RRIRSRPPRLPRPRPRPVFPPRP | -0.118 |
| RRIRSRPPRLPRPRPRPVGQPRP | 0.236 |
| RRIRSRPPRLPRPRPRPVHGPRP | -0.215 |
| RRIRSRPPRLPRPRPRPVHKPRP | -0.151 |
| RRIRSRPPRLPRPRPRPVHWPRP | 0.138 |
| RRIRSRPPRLPRPRPRPVINPRP | -0.106 |
| RRIRSRPPRLPRPRPRPVIWPRP | 0.0455 |
| RRIRSRPPRLPRPRPRPVKCPRP | -0.0337 |
| RRIRSRPPRLPRPRPRPVKPPRP | 0.132 |
| RRIRSRPPRLPRPRPRPVLQPRP | 0.371 |
| RRIRSRPPRLPRPRPRPVMMPRP | -0.0812 |
| RRIRSRPPRLPRPRPRPVNCPRP | -0.247 |
| RRIRSRPPRLPRPRPRPVNTPRP | -0.691 |
| RRIRSRPPRLPRPRPRPVPHPRP | 0.0775 |
| RRIRSRPPRLPRPRPRPVPTPRP | 0.105 |
| RRIRSRPPRLPRPRPRPVQAPRP | 0.0475 |
| RRIRSRPPRLPRPRPRPVQTPRP | 0.826 |
| RRIRSRPPRLPRPRPRPVRIPRP | -0.239 |
| RRIRSRPPRLPRPRPRPVSMPRP | 0.0888 |
| RRIRSRPPRLPRPRPRPVTDPRP | 0.102 |
| RRIRSRPPRLPRPRPRPVTSPRP | -0.132 |

| Sequence | shrunken log2 fold change |
| --- | --- |
| RRIRSRPPRLPRPRPRPVWAPRP | 0.67 |
| RRIRSRPPRLPRPRPRPVWNPRP | -0.372 |
| RRIRSRPPRLPRPRPRPVYQPRP | -1.16 |
| RRIRSRPPRLPRPRPRPWDPPRP | 0.0317 |
| RRIRSRPPRLPRPRPRPWFGPRP | -0.124 |
| RRIRSRPPRLPRPRPRPWFRPRP | 0.212 |
| RRIRSRPPRLPRPRPRPWHGPRP | -0.00232 |
| RRIRSRPPRLPRPRPRPWIGPRP | -0.0735 |
| RRIRSRPPRLPRPRPRPWKHPRP | -0.0883 |
| RRIRSRPPRLPRPRPRPWMSPRP | 0.132 |
| RRIRSRPPRLPRPRPRPWNDPRP | -0.303 |
| RRIRSRPPRLPRPRPRPWNGPRP | -0.0136 |
| RRIRSRPPRLPRPRPRPWNNPRP | -0.627 |
| RRIRSRPPRLPRPRPRPWPSPRP | 0.117 |
| RRIRSRPPRLPRPRPRPWQKPRP | 0.14 |
| RRIRSRPPRLPRPRPRPWRIPRP | -0.0443 |
| RRIRSRPPRLPRPRPRPWRRPRP | 0.0927 |
| RRIRSRPPRLPRPRPRPWTRPRP | 0.0569 |
| RRIRSRPPRLPRPRPRPWVHPRP | -0.221 |
| RRIRSRPPRLPRPRPRPWVPPRP | 0.177 |
| RRIRSRPPRLPRPRPRPWVRPRP | 0.0976 |
| RRIRSRPPRLPRPRPRPWYLPRP | -0.617 |
| RRIRSRPPRLPRPRPRPWYPPRP | -0.301 |
| RRIRSRPPRLPRPRPRPYCEPRP | -0.352 |
| RRIRSRPPRLPRPRPRPYDFPRP | -0.195 |
